Assay results as given in the supplement of paper PMC9112550, “Optimization of the antimicrobial peptide Bac7 by deep mutational scanning” (BMC Biology, 2022).

Tested on: Escherichia coli TOP10
Assay: shrunken log2 fold change of peptide-encoding DNA abundance (4.5 h post-induction vs induction); higher = less antimicrobial activity (less host growth inhibition)
Settings: time post-induction: 4.5 h; library: site-saturation at positions 5, 18, 19, 20
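Further: peptides expressed intracellularly from a pBAD plasmid library in pooled LB shake-flask culture, induced with 0.3% L-arabinose, DNA abundance read by NGS, three biological replicates, DESeq2 with apeglm shrinkage.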

Row | Sequence | shrunken log2 fold change
1 | RRIRMRPPRLPRPRPRPFTGPRP | 0.0078
2 | RRIRMRPPRLPRPRPRPFVCPRP | 0.137
3 | RRIRMRPPRLPRPRPRPFVKPRP | -1.03
4 | RRIRMRPPRLPRPRPRPFWHPRP | -0.00226
5 | RRIRMRPPRLPRPRPRPFWIPRP | 0.00154
6 | RRIRMRPPRLPRPRPRPFYDPRP | -0.12
7 | RRIRMRPPRLPRPRPRPFYIPRP | -0.31
8 | RRIRMRPPRLPRPRPRPGATPRP | 1.38
9 | RRIRMRPPRLPRPRPRPGCVPRP | 0.967
10 | RRIRMRPPRLPRPRPRPGFIPRP | 0.192
11 | RRIRMRPPRLPRPRPRPGFKPRP | 0.46
12 | RRIRMRPPRLPRPRPRPGGAPRP | 1.17
13 | RRIRMRPPRLPRPRPRPGIAPRP | 1.11
14 | RRIRMRPPRLPRPRPRPGIYPRP | -0.075
15 | RRIRMRPPRLPRPRPRPGKCPRP | -0.0233
16 | RRIRMRPPRLPRPRPRPGKPPRP | 0.0496
17 | RRIRMRPPRLPRPRPRPGKQPRP | -0.00189
18 | RRIRMRPPRLPRPRPRPGLAPRP | 1.51
19 | RRIRMRPPRLPRPRPRPGLIPRP | 0.133
20 | RRIRMRPPRLPRPRPRPGMPPRP | 0.522
21 | RRIRMRPPRLPRPRPRPGNRPRP | 0.0934
22 | RRIRMRPPRLPRPRPRPGPFPRP | 0.222

Row | Sequence | shrunken log2 fold change
23 | RRIRMRPPRLPRPRPRPGPLPRP | 0.532
24 | RRIRMRPPRLPRPRPRPGQLPRP | 0.0406
25 | RRIRMRPPRLPRPRPRPGRAPRP | 1.27
26 | RRIRMRPPRLPRPRPRPGSAPRP | 1.4
27 | RRIRMRPPRLPRPRPRPGTHPRP | 0.056
28 | RRIRMRPPRLPRPRPRPGTLPRP | -0.02
29 | RRIRMRPPRLPRPRPRPGWAPRP | 0.965
30 | RRIRMRPPRLPRPRPRPGWFPRP | 1.16
31 | RRIRMRPPRLPRPRPRPGWPPRP | 0.595
32 | RRIRMRPPRLPRPRPRPGYEPRP | 0.247
33 | RRIRMRPPRLPRPRPRPHAYPRP | 0.0623
34 | RRIRMRPPRLPRPRPRPHEFPRP | 0.224
35 | RRIRMRPPRLPRPRPRPHFEPRP | -0.0874
36 | RRIRMRPPRLPRPRPRPHHGPRP | -0.762
37 | RRIRMRPPRLPRPRPRPHHKPRP | -0.316
38 | RRIRMRPPRLPRPRPRPHKEPRP | 0.0586
39 | RRIRMRPPRLPRPRPRPHKPPRP | 0.0226
40 | RRIRMRPPRLPRPRPRPHLCPRP | -0.117
41 | RRIRMRPPRLPRPRPRPHNEPRP | -0.356
42 | RRIRMRPPRLPRPRPRPHRGPRP | 0.0388
43 | RRIRMRPPRLPRPRPRPHSPPRP | -0.114
44 | RRIRMRPPRLPRPRPRPHSVPRP | 0.0764

Row | Sequence | shrunken log2 fold change
45 | RRIRMRPPRLPRPRPRPHTEPRP | 0.191
46 | RRIRMRPPRLPRPRPRPHTMPRP | 0.124
47 | RRIRMRPPRLPRPRPRPHVEPRP | 0.00707
48 | RRIRMRPPRLPRPRPRPHVKPRP | -0.282
49 | RRIRMRPPRLPRPRPRPHVTPRP | -0.441
50 | RRIRMRPPRLPRPRPRPHWNPRP | -0.271
51 | RRIRMRPPRLPRPRPRPIAFPRP | -0.0147
52 | RRIRMRPPRLPRPRPRPICMPRP | 0.024
53 | RRIRMRPPRLPRPRPRPICPPRP | -0.123
54 | RRIRMRPPRLPRPRPRPIDAPRP | 0.616
55 | RRIRMRPPRLPRPRPRPIEHPRP | -0.0129
56 | RRIRMRPPRLPRPRPRPIEQPRP | 0.0161
57 | RRIRMRPPRLPRPRPRPIGCPRP | 0.176
58 | RRIRMRPPRLPRPRPRPIGRPRP | -0.00776
59 | RRIRMRPPRLPRPRPRPIHNPRP | -0.58
60 | RRIRMRPPRLPRPRPRPIKCPRP | -0.0724
61 | RRIRMRPPRLPRPRPRPILAPRP | 0.261
62 | RRIRMRPPRLPRPRPRPINCPRP | -0.0244
63 | RRIRMRPPRLPRPRPRPINEPRP | -0.0839
64 | RRIRMRPPRLPRPRPRPINHPRP | -0.173
65 | RRIRMRPPRLPRPRPRPINIPRP | -0.0393
66 | RRIRMRPPRLPRPRPRPIPAPRP | 0.788

Row | Sequence | shrunken log2 fold change
67 | RRIRMRPPRLPRPRPRPIPFPRP | 0.146
68 | RRIRMRPPRLPRPRPRPIPVPRP | 0.0294
69 | RRIRMRPPRLPRPRPRPIQCPRP | -0.239
70 | RRIRMRPPRLPRPRPRPIREPRP | 0.425
71 | RRIRMRPPRLPRPRPRPIRIPRP | -0.0023
72 | RRIRMRPPRLPRPRPRPIRWPRP | 0.632
73 | RRIRMRPPRLPRPRPRPISMPRP | 0.0246
74 | RRIRMRPPRLPRPRPRPIVIPRP | -0.0284
75 | RRIRMRPPRLPRPRPRPIVYPRP | 0.00317
76 | RRIRMRPPRLPRPRPRPIYEPRP | -0.0231
77 | RRIRMRPPRLPRPRPRPKAKPRP | 0.0227
78 | RRIRMRPPRLPRPRPRPKCCPRP | 0.26
79 | RRIRMRPPRLPRPRPRPKCFPRP | 0.0196
80 | RRIRMRPPRLPRPRPRPKCVPRP | 0.0964
81 | RRIRMRPPRLPRPRPRPKCYPRP | -0.0362
82 | RRIRMRPPRLPRPRPRPKDKPRP | 1.93
83 | RRIRMRPPRLPRPRPRPKDMPRP | 0.0907
84 | RRIRMRPPRLPRPRPRPKDPPRP | 0.438
85 | RRIRMRPPRLPRPRPRPKDSPRP | 1.66
86 | RRIRMRPPRLPRPRPRPKFVPRP | 0.0832
87 | RRIRMRPPRLPRPRPRPKGFPRP | 0.00502
88 | RRIRMRPPRLPRPRPRPKHAPRP | 3.03

Row | Sequence | shrunken log2 fold change
89 | RRIRMRPPRLPRPRPRPKIKPRP | 0.248
90 | RRIRMRPPRLPRPRPRPKKPPRP | 0.102
91 | RRIRMRPPRLPRPRPRPKKVPRP | 0.561
92 | RRIRMRPPRLPRPRPRPKLDPRP | 1.7
93 | RRIRMRPPRLPRPRPRPKLNPRP | 0.851
94 | RRIRMRPPRLPRPRPRPKNQPRP | 0.618
95 | RRIRMRPPRLPRPRPRPKPWPRP | 1.12
96 | RRIRMRPPRLPRPRPRPKTQPRP | 0.971
97 | RRIRMRPPRLPRPRPRPKTWPRP | 0.602
98 | RRIRMRPPRLPRPRPRPKTYPRP | -0.0099
99 | RRIRMRPPRLPRPRPRPKWQPRP | -0.0255
100 | RRIRMRPPRLPRPRPRPLCEPRP | 0.653
101 | RRIRMRPPRLPRPRPRPLCMPRP | 0.0571
102 | RRIRMRPPRLPRPRPRPLDDPRP | 3.25
103 | RRIRMRPPRLPRPRPRPLDLPRP | 0.062
104 | RRIRMRPPRLPRPRPRPLENPRP | 0.0866
105 | RRIRMRPPRLPRPRPRPLGGPRP | 0.548
106 | RRIRMRPPRLPRPRPRPLHMPRP | -0.0934
107 | RRIRMRPPRLPRPRPRPLHPPRP | 0.439
108 | RRIRMRPPRLPRPRPRPLIIPRP | -0.249
109 | RRIRMRPPRLPRPRPRPLKTPRP | 0.642
